First the molecules themselves.
T1: full-length beta-Catenin (Uniprot ID P35222) (Homo sapiens (Human), UniProt P35222 1-781)
T1 construct: Used full-length in the fluorescence polarization probe solution (10 nM); also called bCat; B-Catenin
T1 sequence: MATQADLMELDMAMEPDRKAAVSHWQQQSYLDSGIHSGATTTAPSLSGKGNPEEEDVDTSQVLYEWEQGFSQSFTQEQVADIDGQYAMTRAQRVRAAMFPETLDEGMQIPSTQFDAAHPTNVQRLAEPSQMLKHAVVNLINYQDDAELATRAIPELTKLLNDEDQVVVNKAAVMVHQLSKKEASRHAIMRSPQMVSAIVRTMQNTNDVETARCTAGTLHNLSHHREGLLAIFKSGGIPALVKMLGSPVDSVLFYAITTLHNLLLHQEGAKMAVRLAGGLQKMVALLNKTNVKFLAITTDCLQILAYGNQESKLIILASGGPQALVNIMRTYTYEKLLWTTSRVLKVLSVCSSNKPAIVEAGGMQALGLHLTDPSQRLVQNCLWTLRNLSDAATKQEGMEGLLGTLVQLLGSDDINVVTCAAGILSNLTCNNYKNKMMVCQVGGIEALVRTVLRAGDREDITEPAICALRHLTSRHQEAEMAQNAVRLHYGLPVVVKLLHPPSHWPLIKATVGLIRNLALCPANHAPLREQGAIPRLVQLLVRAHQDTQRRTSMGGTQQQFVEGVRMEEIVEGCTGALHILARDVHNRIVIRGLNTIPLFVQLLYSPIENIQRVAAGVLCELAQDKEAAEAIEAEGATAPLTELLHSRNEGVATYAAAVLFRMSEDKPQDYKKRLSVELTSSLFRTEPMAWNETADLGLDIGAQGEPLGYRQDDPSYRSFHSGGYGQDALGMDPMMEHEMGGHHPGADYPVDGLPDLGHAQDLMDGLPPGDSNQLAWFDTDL

B1: I-472 (peptide)
peptide: Ac-[αAllylPro]DI[B5(6)]DEAAFN[S8]F[Bta]H-NH2
modifications: staple 1-4, 4-11
notes: Stapled peptide composition
B2: I-478 (peptide)
peptide: XDAXDEAAFNXFXH
modifications: not fully specified; Ac-PL3-Asp-Ala-B5-Asp-Glu-Ala-Ala-Phe-Asn-S8-Phe-BztA-1MeH-NH2; N-terminal acetyl, C-terminal amide; stapled PL3-B5 and B5-S8
notes: Stapled peptide composition
B3: I-470 (peptide)
peptide: Ac-[αAllylPro]DI[B5(6)]DDAAFN[S8]F[Bta]H-NH2
modifications: staple 1-4, 4-11; also: separate HPLC peak/isomer composition from I-469
notes: Stapled peptide composition
B4: I-471 (peptide)
peptide: Ac-[αAllylPro]DI[B5(6)]DEAAFQ[S8]F[Bta]H-NH2
modifications: staple 1-4, 4-11
notes: Stapled peptide composition
B5: I-476 (peptide)
peptide: XDIXDEAAFNXFXQ
modifications: not fully specified; Ac-PL3-Asp-aIle-B5-Asp-Glu-Ala-Ala-Phe-Asn-S8-Phe-BztA-Gln-NH2; N-terminal acetyl, C-terminal amide; stapled PL3-B5 and B5-S8
notes: Stapled peptide composition
B6: I-495 (peptide)
peptide: XDIXDEAAFQXFXN
modifications: not fully specified; Ac-PL3-Asp-Ile-B5-Asp-Glu-Ala-Ala-Phe-Gln-S8-Phe-BztA-Asn-NH2; N-terminal acetyl, C-terminal amide; stapled PL3-B5 and B5-S8
notes: Stapled peptide composition
B7: I-479 (peptide)
peptide: XDAXDEAAFNXFXH
modifications: not fully specified; Ac-PL3-Asp-Ala-B5-Asp-Glu-Ala-Ala-Phe-Asn-S8-Phe-BztA-1MeH-NH2; N-terminal acetyl, C-terminal amide; stapled PL3-B5 and B5-S8
notes: Stapled peptide composition
B8: I-475 (peptide)
peptide: XDIXDEAAFNXFXQ
modifications: not fully specified; Ac-PL3-Asp-aIle-B5-Asp-Glu-Ala-Ala-Phe-Asn-S8-Phe-BztA-Gln-NH2; N-terminal acetyl, C-terminal amide; stapled PL3-B5 and B5-S8
notes: Stapled peptide composition
B9: I-494 (peptide)
peptide: XDAXDEAAFQXFXQ
modifications: not fully specified; Ac-PL3-Asp-Ala-B5-Asp-Glu-Ala-Ala-Phe-Gln-S8-Phe-BztA-DGIn-NH2 (so in the source); read as D-Gln at position 14); N-terminal acetyl, C-terminal amide; stapled PL3-B5 and B5-S8
notes: Stapled peptide composition
B10: I-491 (peptide)
peptide: XDAXDEAAFQXFXS
modifications: not fully specified; Ac-PL3-Asp-Ala-B5-Asp-Glu-Ala-Ala-Phe-Gln-S8-Phe-BztA-Hse-NH2; N-terminal acetyl, C-terminal amide; stapled PL3-B5 and B5-S8
notes: Stapled peptide composition
B11: I-498 (peptide)
peptide: Ac-[αAllylPro]DA[B5(6)][hSer]EAAFQ[S8]F[Bta]Q-NH2
modifications: staple 1-4, 4-11; not fully specified; printed as Ac-PL3-Asp-Ala-B5-Hse-Glu-Ala-Ala-Phe-Gln-S8-Phe-BztA-Gln-NH2
notes: Stapled peptide composition
B12: I-492 (peptide)
peptide: XDAXDEAAFQXFXS
modifications: not fully specified; Ac-PL3-Asp-Ala-B5-Asp-Glu-Ala-Ala-Phe-Gln-S8-Phe-BztA-Hse-NH2; N-terminal acetyl, C-terminal amide; stapled PL3-B5 and B5-S8
notes: Stapled peptide composition
B13: I-477 (peptide)
peptide: Ac-[αAllylPro]DT[B5(29)]DEAAFQ[S8]F[Bta]Q-NH2
modifications: staple 1-4, 4-11
notes: Stapled peptide composition
B14: I-497 (peptide)
peptide: Ac-[αAllylPro]DA[B5(6)][hSer]EAAFQ[S8]F[Bta]Q-NH2
modifications: staple 1-4, 4-11; not fully specified; printed as Ac-PL3-Asp-Ala-B5-Hse-Glu-Ala-Ala-Phe-Gln-S8-Phe-BztA-Gln-NH2
notes: Stapled peptide composition
B15: I-496 (peptide)
peptide: Ac-[αAllylPro]DA[B5(6)][hSer]EAAFQ[S8]F[Bta]Q-NH2
modifications: staple 1-4, 4-11; not fully specified; printed as Ac-PL3-Asp-Ala-B5-Hse-Glu-Ala-Ala-Phe-Gln-S8-Phe-BztA-Gln-NH2
notes: Stapled peptide composition
B16: I-493 (peptide)
peptide: XDAXDEAAFQXFXS
modifications: not fully specified; Ac-PL3-Asp-Ala-B5-Asp-Glu-Ala-Ala-Phe-Gln-S8-Phe-BztA-DSer-NH2; N-terminal acetyl, C-terminal amide; D-Ser at position 14; stapled PL3-B5 and B5-S8
notes: Stapled peptide composition

Starred links: 1 amine or outer side, 2 acyl side, 3 side chain; linkers in the order of their positions; H or OH if unused. Positions of bridges follow the written chain, without caps; N, C: chain ends. Non-standard residues stand in square brackets, D forms with d. Primed or numbered codes have the meaning given here. B5(29) = 2-amino-2-(pent-4-en-1-yl)hept-6-enoic acid (2,2-bis(4-pentenyl)glycine), stitching residue bearing both staples, C=CCCCC(CCCC=C)(N[*:1])C(=O)[*:2]; B5(6) = 2-amino-2-(pent-4-en-1-yl)hept-6-enoic acid (bis(4-pentenyl)glycine), stitching residue, C=CCCCC(CCCC=C)(N[*:1])C(=O)[*:2]; Bta = N[C@@H](Cc1csc2ccccc12)C(=O)O; αAllylPro = C=CC[C@@]1(C(=O)O)CCCN1; S8 = C=CCCCCCC[C@](C)(N)C(=O)O; hSer = N[C@@H](CCO)C(=O)O

The values below come from patent US20240116985A1 (published 2024).

The assay has as its target T1, full-length beta-Catenin (Uniprot ID …). Briefly: fluorescence polarization competition; displacement of 5FAM-TCF4(10-53) from full-length beta-catenin. As for the experimental part: The plate was incubated protected from light for 60 minutes at 20° C. prior to read. Reads were performed on a CLARIOstar plate reader (BMG Labtech) in duplicate, and data were fitted to a 1:1 binding model with hill slope using an in-house script. All provided concentrations are final concentrations.
In general terms: Polarisation of emitted light reports the rotation of a fluorescent probe.
As usually defined, the EC50 is the midpoint of the concentration-response curve. A low value points to greater potency. B1 displayed an EC50 of 62 nM.

Molecule B2 yielded an EC50 of 71 nM.

Turning to B3, a half-maximal response (EC50) required 11 nM.

Regarding B4, the concentration for a half-maximal effect (EC50) stood at 52 nM. Compared with the last molecule, the EC50 is about 4.7-fold higher.

Consider B5, for which the midpoint of the response, the EC50, lay at 48 nM.

With B6, the EC50 was found to be 181 nM.

In the case of B7, a half-maximal effect (EC50) was put at 27 nM.

In turn, B8 yielded an EC50 of 102 nM. This EC50 is about 3.8-fold higher than that of the molecule before.

B9 registered an EC50 of 82 nM.

As for B10, the EC50 was determined as 153 nM. Compared with the last molecule, the EC50 is about 1.9-fold higher.

As to B11, it took 5000 nM to reach a half-maximal effect (EC50).

B12 returned an EC50 of 53 nM.

Regarding B13, the EC50 worked out at 119 nM.

In the case of B14, a half-maximal effect (EC50) was put at 5000 nM.

With B15, the response was half-maximal at 5000 nM (EC50). In other words, the single-digit micromolar range.

On to B16, for which it took 88 nM to reach a half-maximal effect (EC50).
